The record followed here is article doi:10.1101/2025.03.31.646278.

This experiment deals with HPV16 L1 pentamer (deletion construct of the major capsid protein L1) (human papillomavirus type 16). The experiment is described as follows: cryo-EM structure.

The substance “HPV16 L1 pentamer (deletion construct of the major capsid protein L1) (domain or fragment)” registered a stoichiometry N (protomers per pentamer) of 5.
